For two proteins, FXa kcat/KM results are on record in US20160024487.

Series [1] concerns the target T1, Lys(Dnp)-ATNATFRPRIVGG-Lys(Abz).
T1 chain: KATNATFRPRIVGGK

Series [2] deals with T2, Lys(Dnp)-ATNATWGPRIVGG-Lys(Abz).
T2 chain: KATNATWGPRIVGGK

Series [3] addresses T3, Lys(Dnp)-ATNATLFPRIVGG-Lys(Abz).
T3 chain: KATNATLFPRIVGGK

The target in series [4] is T4, Lys(Dnp)-ATNATMTPRIVGG-Lys(Abz).
T4 chain: KATNATMTPRIVGGK

Series [5] deals with T5, Lys(Dnp)-ATNATAFPRIVGG-Lys(Abz).
T5 chain: KATNATAFPRIVGGK

In series [6] the target is T6, Lys(Dnp)-ATNATFYPRIVGG-Lys(Abz).
T6 chain: KATNATFYPRIVGGK

Series [7] has as its target T7, Lys(Dnp)-ATNATATPRIVGG-Lys(Abz).
T7 chain: KATNATATPRIVGGK

Series [8] addresses T8, Lys(Dnp)-ATNATYQPRIVGG-Lys(Abz).
T8 chain: KATNATYQPRIVGGK

Series [9] addresses T9, Lys(Dnp)-ATNATLMPRIVGG-Lys(Abz).
T9 chain: KATNATLMPRIVGGK

In series [10] the target is T10, Lys(Dnp)-ATNATPKPRIVGG-Lys(Abz).
T10 chain: KATNATPKPRIVGGK

The target in series [11] is T11, Lys(Dnp)-ATNATRPPRIVGG-Lys(Abz).
T11 chain: KATNATRPPRIVGGK

Series [12] deals with T12, Lys(Dnp)-ATNATLAPRIVGG-Lys(Abz).
T12 chain: KATNATLAPRIVGGK

In series [13] the target is T13, Lys(Dnp)-ATNATMMPRIVGG-Lys(Abz).
T13 chain: KATNATMMPRIVGGK

The target of series [14] is T14, Lys(Dnp)-ATNATAGPRIVGG-Lys(Abz).
T14 chain: KATNATAGPRIVGGK

Series [15] deals with T15, Lys(Dnp)-ATNATIKPRIVGG-Lys(Abz).
T15 chain: KATNATIKPRIVGGK

The target of series [16] is T16, Lys(Dnp)-ATNATLIPRIVGG-Lys(Abz).
T16 chain: KATNATLIPRIVGGK

The target in series [17] is T17, Lys(Dnp)-ATNATAVPRIVGG-Lys(Abz).
T17 chain: KATNATAVPRIVGGK

In series [18] the target is T18, Lys(Dnp)-ATNATVMPRIVGG-Lys(Abz).
T18 chain: KATNATVMPRIVGGK

Series [19] concerns the target T19, Lys(Dnp)-ATNATTHPRIVGG-Lys(Abz).
T19 chain: KATNATTHPRIVGGK

The target of series [20] is T20, Lys(Dnp)-ATNATYMPRIVGG-Lys(Abz).
T20 chain: KATNATYMPRIVGGK

In series [21] the target is T21, Lys(Dnp)-ATNATWNPRIVGG-Lys(Abz).
T21 chain: KATNATWNPRIVGGK

In series [22] the target is T22, Lys(Dnp)-ATNATWWPRIVGG-Lys(Abz).
T22 chain: KATNATWWPRIVGGK

Series [23] deals with T23, Lys(Dnp)-ATNATWFPRIVGG-Lys(Abz).
T23 chain: KATNATWFPRIVGGK

For series [24], the target named is T24, Lys(Dnp)-ATNATPRPRIVGG-Lys(Abz).
T24 chain: KATNATPRPRIVGGK

The target of series [25] is T25, Lys(Dnp)-ATNATVNPRIVGG-Lys(Abz).
T25 chain: KATNATVNPRIVGGK

The target of series [26] is T26, Lys(Dnp)-ATNATQAPRIVGG-Lys(Abz).
T26 chain: KATNATQAPRIVGGK

Series [27] addresses T27, Lys(Dnp)-ATNATMNPRIVGG-Lys(Abz).
T27 chain: KATNATMNPRIVGGK

Series [28] has as its target T28, Lys(Dnp)-ATNATRVPRIVGG-Lys(Abz).
T28 chain: KATNATRVPRIVGGK

In series [29] the target is T29, Lys(Dnp)-ATNATILPRIVGG-Lys(Abz).
T29 chain: KATNATILPRIVGGK

Series [30] concerns the target T30, Lys(Dnp)-ATNATYNPRIVGG-Lys(Abz).
T30 chain: KATNATYNPRIVGGK

For series [31], the target named is T31, Lys(Dnp)-ATNATLNPRIVGG-Lys(Abz).
T31 chain: KATNATLNPRIVGGK

Series [32] has as its target T32, Lys(Dnp)-ATNATSNPRIVGG-Lys(Abz).
T32 chain: KATNATSNPRIVGGK

Series [33] concerns the target T33, Lys(Dnp)-ATNATYHPRIVGG-Lys(Abz).
T33 chain: KATNATYHPRIVGGK

The target in series [34] is T34, Lys(Dnp)-ATNATRMPRIVGG-Lys(Abz).
T34 chain: KATNATRMPRIVGGK

For series [35], the target named is T35, Lys(Dnp)-ATNATPGPRIVGG-Lys(Abz).
T35 chain: KATNATPGPRIVGGK

Series [36] addresses T36, Lys(Dnp)-ATNATYPPRIVGG-Lys(Abz).
T36 chain: KATNATYPPRIVGGK

In series [37] the target is T37, Lys(Dnp)-ATNATWDPRIVGG-Lys(Abz).
T37 chain: KATNATWDPRIVGGK

In series [38] the target is T38, Lys(Dnp)-ATNATEQPRIVGG-Lys(Abz).
T38 chain: KATNATEQPRIVGGK

Series [39] deals with T39, Lys(Dnp)-ATNATIAPRIVGG-Lys(Abz).
T39 chain: KATNATIAPRIVGGK

Series [40] addresses T40, Lys(Dnp)-ATNATWEPRIVGG-Lys(Abz).
T40 chain: KATNATWEPRIVGGK

Series [41] addresses T41, Lys(Dnp)-ATNATEVPRIVGG-Lys(Abz).
T41 chain: KATNATEVPRIVGGK

B1: Human plasma purified Factor Xa (protein)
chain 1: ANSFLEEMKKGHLERECMEETCSYEEAREVFEDSDKTNEFWNKYKDGDQCETSPCQNQGKCKDGLGEYTCTCLEGFEGKNCELFTRKLCSLDNGDCDQFCHEEQNSVVCSCARGYTLADNGKACIPTGPYPCGKQTLER
chain 2: IVGGQECKDGECPWQALLINEENEGFCGGTILSEFYILTAAHCLYQAKRFKVRVGDRNTEQEEGGEAVHEVEVVIKHNRFTKETYDFDIAVLRLKTPITFRMNVAPACLPERDWAESTLMTQKTGIVSGFGRTHEKGRQSTRLKMLEVPYVDRNSCKLSSSFIITQNMFCAGYDTKQEDACQGDSGGPHVTRFKDTYFVTGIVSWGEGCARKGKYGIYTKVTAFLKWIDRSMKTRGLPKAKSHAPEVITSSPLK
B1: the FXa kcat/KM in series [1] is 430 M⁻¹ s⁻¹; in [2], 61 M⁻¹ s⁻¹; in series [3] it was 99 M⁻¹ s⁻¹; in series [4], 97 M⁻¹ s⁻¹; in series [5], 22 M⁻¹ s⁻¹; in series [6] it was 71 M⁻¹ s⁻¹. Also, the FXa kcat/KM in series [7] came to 330 M⁻¹ s⁻¹; in series [8], 60 M⁻¹ s⁻¹; in [9], 2700 M⁻¹ s⁻¹; in [10], 74 M⁻¹ s⁻¹; in series [11], 7 M⁻¹ s⁻¹; in series [12], 230 M⁻¹ s⁻¹. Moreover, the FXa kcat/KM stood at 1000 M⁻¹ s⁻¹ in [13]; 14 M⁻¹ s⁻¹ in [14]; 120 M⁻¹ s⁻¹ in series [15]; 420 M⁻¹ s⁻¹ in series [16]; 42 M⁻¹ s⁻¹ in series [17]; 280 M⁻¹ s⁻¹ in series [18].

B2: Human plasma purified Factor Xa (Molecular Innovations, Inc) (protein)
chain 1: B1 chain 1
chain 2: B1 chain 2
As for B2, the FXa kcat/KM stood at 14 M⁻¹ s⁻¹ in series [19]; 160 M⁻¹ s⁻¹ in series [20]; 22 M⁻¹ s⁻¹ in series [21]; 70 M⁻¹ s⁻¹ in series [22]; 49 M⁻¹ s⁻¹ in series [23]; 500 M⁻¹ s⁻¹ in [24]. Moreover, the FXa kcat/KM in series [25] came out at 70 M⁻¹ s⁻¹; in series [26], 410 M⁻¹ s⁻¹; in [27], 430 M⁻¹ s⁻¹; in series [28], 510 M⁻¹ s⁻¹; in [29], 700 M⁻¹ s⁻¹; in [30], 50 M⁻¹ s⁻¹. In addition, the FXa kcat/KM was found to be 940 M⁻¹ s⁻¹ in series [31]; 24 M⁻¹ s⁻¹ in series [32]; 43 M⁻¹ s⁻¹ in series [33]; 4600 M⁻¹ s⁻¹ in series [34]; 100 M⁻¹ s⁻¹ in series [35]; 20 M⁻¹ s⁻¹ in series [36]. The FXa kcat/KM in series [37] is 16 M⁻¹ s⁻¹; in series [38], 11 M⁻¹ s⁻¹; in [39], 650 M⁻¹ s⁻¹; in series [40], 24 M⁻¹ s⁻¹; in series [41] it was 24 M⁻¹ s⁻¹.
